The source of these data is paper PMC11849630.

This test deals with eGFP-tagged htau 441 ΔK280 mutant (eGFP-tau ΔK280) (human) (UniProt P10636). Kind of test: fluorescence correlation spectroscopy (FCS/FCCS) in live cells; HEK293T cells overexpressing fluorescent-protein-fused tau; diffusion coefficient fitted (3D normal diffusion), mass by Stokes-Einstein, calibrated with eGFP-mCherry fusion; only tau not bound to microtubules.

“eGFP-tagged htau 441 ΔK280 mutant (eGFP-tau ΔK280) (from UniProt P10636-8 1-441) (natural protein)”: the stoichiometry N was determined as 19.

A word on the stoichiometry N: it is the number of molecules, sites or subunits per partner or assembly.
